Experimental data published in patent US20110237779A1.
Positions count from the first letter of the chain named. Numbers in names are those of the source.

B1: MHM24 library clone, CDR-L2 SGSTLES (Fab, V domains shown)
VH: EVQLVESGGGLVQPGGSLRLSCAASGYSFTGHWMNWVRQAPGKGLEWVGMIHPSDSETRLNQKFKDRFTISADTSKNTAYLQMNSLRAEDTAVYYCARGIYFYGTTYFDYWGQGTLVTVSS
VL: DIQMTQSPSSLSASVGDRVTITCRASKTISKYLAWYQQKPGKAPKLLIYSGSTLESGVPSRFSGSGSGTDFTLTISSLQPEDFATYYCQQHNEYPLTFGQGTKVEIK
B2: MHM24 library clone, CDR-L2 SGYSLHR, VL K27E, L96V (Fab, V domains shown)
VH: B1 VH
VL: B1 VL with K27E, S52Y, T53S, E55H, S56R, L96V
B3: MHM24 library clone, CDR-L2 SGSALQS (Fab, V domains shown)
VH: B1 VH
VL: B1 VL with T53A, E55Q
B4: MHM24 direct hypervariable region graft on the acceptor human consensus framework (Fab displayed on phage) (Fab, V domains shown)
VH: B1 VH
VL: B1 VL with E55Q
B5: MHM24 library clone, CDR-L2 SGRSLQR, VH L45P (Fab, V domains shown)
VH: B1 VH with L45P
VL: B1 VL with S52R, T53S, E55Q, S56R
B6: MHM24 library clone, CDR-L2 SGSTLES, VH S55I (Fab, V domains shown)
VH: B1 VH with S56I
VL: B1 VL
B7: MHM24 library clone, CDR-L2 SGSTLES, VH D101E (Fab, V domains shown)
VH: B1 VH with D109E
VL: B1 VL
B8: MHM24 library clone, CDR-L2 NARSLQS (Fab, V domains shown)
VH: B1 VH
VL: B1 VL with S50N, G51A, S52R, T53S, E55Q
B9: MHM24 library clone, CDR-L2 SGGTLHR (Fab, V domains shown)
VH: B1 VH
VL: B1 VL with S52G, E55H, S56R
B10: MHM24 library clone, CDR-L2 SGRAMQR (Fab, V domains shown)
VH: B1 VH
VL: B1 VL with S52R, T53A, L54M, E55Q, S56R
B11: MHM24 library clone, CDR-L2 TGSTLES, VL S26T (Fab, V domains shown)
VH: B1 VH
VL: B1 VL with S26T, S50T
B12: MHM24 library clone, CDR-L2 SGRTLWP (Fab, V domains shown)
VH: B1 VH
VL: B1 VL with S52R, E55W, S56P
B13: MHM24 library clone, CDR-L2 SGRALQS (Fab, V domains shown)
VH: B1 VH
VL: B1 VL with S52R, T53A, E55Q
B14: MHM24 library clone, CDR-L2 SGRSLQS, VH S28R (Fab, V domains shown)
VH: B1 VH with S28R
VL: B1 VL with S52R, T53S, E55Q
B15: MHM24 library clone, CDR-L2 SGSIFQY, VH Y100dT (Fab, part only; not given: CH1, light constant and phage P3, part only)
light chain: DIQMTQSPSSLSASVGDRVTITCRASKTISKYLAWYQQKPGKAPKLLIYSGSIFQYGVPSRFSGSGSGTDFTLTISSLQPEDFATYYCQQHNEYPLTFGQGTKVEIKR
heavy chain (VH-CH1 fused to phage P3), part: B1 VH

Legend:
human LFA-1 (human) [1] = biological target: human LFA-1 (human) (UniProt P20701); experiment: phage ELISA, solution competition: Fab-phage incubated with serially diluted LFA-1, unbound phage captured on LFA-1-coated wells; IC50 used as affinity estimate
human LFA-1 (human) [2] = biological target: human LFA-1 (human) (UniProt P20701); experiment: phage ELISA, Fab on phage, competition with antigen in solution; IC50 used as affinity estimate
human LFA-1 (human) [3] = biological target: human LFA-1 (human) (UniProt P20701); experiment: phage ELISA, Fab on phage, competition with antigen in solution

Row | Binder | IC50 (human LFA-1 (human) [1]) | IC50 (human LFA-1 (human) [2]) | IC50 (human LFA-1 (human) [3])
1 | B1 | 9 nM | – | –
2 | B2 | 41 nM | – | –
3 | B3 | 8 nM | – | –
4 | B4 | 6 nM | 4 nM | 6 nM
5 | B5 | 27 nM | – | –
6 | B6 | 4 nM | – | –
7 | B7 | 8 nM | – | –
8 | B8 | 32 nM | – | –
9 | B9 | 6 nM | – | –
10 | B10 | 11 nM | – | –
11 | B11 | 4 nM | – | –
12 | B12 | 17 nM | – | –
13 | B13 | 9 nM | – | –
14 | B14 | 17 nM | – | –
15 | B15 | 11 nM | – | –
